According to patent US8409836B2, “Treatment of cellulosic material and enzymes useful therein” (Roal Oy, priority 2005, dated 2013):

Assays:
Assay type in all cases: biochemical
[1] = Hydrolysis with endoglucanase preparations, corn stover; details: with CBHI and CBHII of T. reesei; 48 h, 45° C., pH 5.0
Description: The preparations containing the endoglucanases were compared in hydrolysis studies mixed with the purified CBH/Cel7 and CBH/Cel6 enzymes on several pre-treated substrates. Culture filtrates of T. reesei, containing different cloned endoglucanase enzymes were obtained as described in Example 19. The enzymes were enriched by removing thermolabile proteins from the mixtures by a heat treatment (60° C., 2 h, pH 5) and the supernatant was used for the hydrolysis studies. In addition, pure T. reesei cellulases (purified as described by Suurnäkki et al., 2000) were used in the enzyme mixtures. The endoglucanases used in the experiment were:
Steam exploded corn stover fibre (steam pre-treatment at 210° C. for 5 min), dry matter 31.0% (SECS).
The endoglucanases to be studied (dosage 840 nkat/g dry matter, based on endoglucanase activity against HEC according to IUPAC, 1987) were used either with cellobiohydrolases of T. reesei (CBHI/Cel7A, 8.1 mg/g d.m. and CBHII/Cel6A, 2.0 mg/g d.m.) or with Thermoascus aurantiacus Cel7A with genetically attached CBD of T. reesei (10.1 mg/g d.m.). Purified (Suurnäkki et al., 2000) EGI (Cel7B) and EGII (Cel5A) of T. reesei were also included in the experiments for comparison. All mixtures were supplemented with additional β-glucosidase from Novozym 188 (to make the total β-glucosidase dosage 560 nkat/g d.w., the relatively high dosage was used to compensate the differences in the background activities of the different EG preparations). Triplicate tubes were incubated in mixing at 45° C. for 48 h and reference samples with inactivated enzymes and corresponding substrates were prepared. The release of hydrolysis products was measured as reducing sugars with DNS method using glucose as standard (Table 31).

[2] = Endoglucanase activity on carboxymethyl cellulose; details: purified endoglucanase, 50° C., procedure of IUPAC 1987
Summary of the method: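 Endoglucanase activity of purified enzymes from Acremonium thermophilum ALKO4245 and Thermoascus aurantiacus ALKO4242 measured on carboxymethyl cellulose by the IUPAC 1987 standard procedure. Protein by Lowry for purified preparations; the A. thermophilum supernatant was pre-incubated 24 h at 70 °C before purification.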

[3] = pH optimum of heterologously produced endoglucanases; details: McIlvaine's buffer, pH range 4.0-8.0, CMC, 10 min, 50° C.
Description: The pH optimum of the heterologously produced endoglucanases was determined in the universal McIlvaine's buffer within a pH range of 4.0-8.0 using carboxymethylcellulose as substrate. As shown in FIG. 6 A the broadest pH range (4.5-6.0) is that of the Acremonium EG—40/Cel45A protein, the optimum being at pH 5.5. The pH optima for the other heterologously produced endoglucanases are pH 5.0-5.5 and 6.0 for Acremonium EG—40_like/Cel45B and Thermoascus EG—28/Cel5A, respectively. The optimal temperature for enzymatic activity of these endoglucanases was determined at the temperature range of 50-85° C. as described above. The highest activity of the enzymes was determined to be at 75° C., 60° C., and 75° C. for the Acremonium EG—40/Cel45A, EG—40 like/Cel45B, and Thermoascus EG—28/Cel5A, respectively (FIG. 6 B).

B1: Ta EG_28: endoglucanase of Thermoascus aurantiacus ALKO4242, gene Ta cel5A, amino acid SEQ ID NO: 10 (protein)
chain: MKLGSLVLALSAARLTLSAPLADRKQETKRAKVFQWFGSNESGAEFGSQNLPGVEGKDYIWPDPNTIDTLISKGMNIFRVPFMMERLVPNSMTGSPDPNYLADLIATVNAITQKGAYAVVDPHNYGRYYNSIISSPSDFQTFWKTVASQFASNPLVIFDTNNEYHDMDQTLVLNLNQAAIDGIRSAGATSQYIFVEGNSWTGAWTWTNVNDNMKSLTDPSDKIIYEMHQYLDSDGSGTSATCVSSTIGQERITSATQWLRANGKKGIIGEFAGGANDVCETAITGMLDYMAQNTDVWTGAIWWAAGPWWGDYIFSMEPDNGIAYQQILPILTPYL
- Hydrolysis products as reducing sugars, SECS [1]: 3.9 mg/mL
- Specific activity on CMC [2]: 4290 nkat/mg
- pH optimum [3]: 6.0
